Data as given in US20260226138A1, “COMBINATION TUMOR THERAPY WITH THROMBOSIS INITIATION AND PLATELET RECRUITMENT” (Wisconsin Alumni Research Foundation, priority 2022, published 2026).

How the values were obtained:
[1] = target: integrin receptors on the angiogenic blood vessels in the tumor site; assay: cell-based or functional assay
[2] = system: FX (proteolytic activation of FX by FVIIa); assay: FX activation assay; type: biochemical; conditions: in the presence of factor VII (a) and Ca2+ ions
Protocol: The FX activation activity was tested using a modified procedure based on a previous report in the art. Briefly, to each well of a black 96-well plate was added 100 μL of BSA, tTF, and tTF-RGD with different concentrations in Tris-buffered saline containing 0.1% BSA. […] After 5 min of incubation at room temperature, FX (Haematologic Technologies, Inc.) was added to reach a final concentration of 30 nM and reacted for an additional 5 min. The reaction was quenched by addition of 20 μL of 100 mmol/L EDTA solution before 10 μL of 6-amino-1-naphthalenesulfonamide-based (ANSN) fluorogenic substrate (10 mM) (Haematologic Technologies, Inc.) was added to the mixture. Three minutes later, the fluorescence intensities were measured with a microplate reader (excitation=352 nm, emission=470 nm).

[3] = system: CT26 tumor-bearing mice; assay: Coagulation initiation after intratumoral injection, CT26 tumors; type: in vivo
Protocol: (§1) The coagulation initiation capability of tTF-RGD was investigated by treating CT26 tumor-bearing mice with 1.25 mg/kg of BSA, tTF, and tTF-RGD via intratumoral injection. Twenty-four hours later, the tumors were collected and subjected to H&E staining. To characterize the coagulation triggered by a lower dose of the tTF-RGD, 0.4 mg/kg of BSA, tTF, and tTF-RGD were administered into CT26 tumor-bearing mice via p.t. injection. Furthermore, mice bearing CT26 tumors were also treated with BSA, tTF and tTF-RGD (1.25 mg/kg) via i.v. injection every other day for 3 times in total. Twenty-four hours post injection of the last dose, the tumors and other major organs were collected and subjected to H&E staining.

[4] = system: CT26 tumor-bearing mice; assay: Coagulation after p.t. injection of lower dose, CT26 tumors; type: in vivo; conditions: 0.4 mg/kg
Protocol: as §1

[5] = system: CT26 tumor-bearing mice; assay: Coagulation after three i.v. doses, H&E of tumors and major organs; type: in vivo
Protocol: as §1

[6] = system: CT26 tumors; parameters: species or system mice; conditions: mouse, in vivo, iv, 1.25 mg/kg
Protocol: Tumor vasculature-targeting and coagulation initiating ability tTF-RGD: The tumor vasculature-targeting ability of tTF-RGD was investigated using IVIS. Briefly, tTF and tTF-RGD were labeled with sulfo-Cy5.5-NHS ester and dialyzed against PBS at 4° C. to remove unreacted dyes. Balb/C mice (6-8 weeks, male) were inoculated with 1×10^6 CT26 cells. When the tumor volumes reached 100-150 mm^3 (calculated as length×width^2×0.5), Cy5.5-labeled tTF or tTF-RGD were injected at the dose of 1.25 mg/kg via i.v. route to mice bearing CT26 tumors. […] At 24 h, the mice were euthanized, and tumors were collected and visualized ex vivo. The fluorescence was analyzed using Living Image Software v.4.3.1 (Perkin Elmer).

[7] = system: CT26 tumors; assay: Tumor coagulation by Cy5.5-labeled fibrinogen accumulation (IVIS); type: in vivo, mice
Protocol: To assess the tumor vasculature-coagulation triggered by tTF-RGD, fibrinogen was labeled with sulfo-Cy5.5-NHS ester and dialyzed against PBS to remove unreacted dyes. BSA, tTF or tTF-RGD were injected at the dose of 1.25 mg/kg via i.v. route to mice bearing CT26 tumors, followed by i.v. injection of 1 nmol of fibrinogen. […] At 24 h, the mice were euthanized, and tumors were collected and visualized ex vivo.

[8] = system: CT26 tumors; assay: Recruitment of P-aPD-1 to tumor, p.t. injected protein (local strategy); type: in vivo, mice
Protocol: (§2) Recruitment of P-aPD-1 by tTF-RGD treatment: The recruitment of P-aPD-1 to tumor sites by tTF-RGD-initiated coagulation was studied using IVIS. P-aPD-1 was reacted with sulfo-Cy5.5-NHS ester at room temperature for 1 h and washed three times with PBS to remove unreacted dyes. For the local treating strategy, BSA, tTF, and tTF-RGD were given at the dose of 0.4 mg/kg via p.t. injection to mice bearing CT26 tumors, followed by i.v. injection of approximately 1×10^8 P-aPD-1 (aPD-1:1 mg/kg). For the systemic treatment strategy, BSA, tTF, and tTF-RGD were given at the dose 1.25 mg/kg via i.v. injection to mice bearing CT26 tumors, followed by i.v. injection of approximately 1×10^8 P-aPD-1 (aPD-1:1 mg/kg). […] At 24 h, the mice were euthanized, and tumors were collected and visualized ex vivo.

[9] = system: CT26 tumors; assay: Recruitment of P-aPD-1 to tumor, i.v. injected protein (systemic strategy); type: in vivo, mice
Protocol: as §2

[10] = system: CT26 subcutaneous tumor; assay: Anti-tumor efficacy, subcutaneous CT26 model, local treating strategy; type: in vivo, Balb/C mice; conditions: tTF or tTF-RGD p.t. 0.4 mg/kg, aPD-1 1 mg/kg i.v., 3 doses
Protocol: (§3) Anti-tumor efficacy of tTF-RGD+P-aPD-1: To establish a subcutaneous CT26 colon cancer model, Balb/C mice (6-8 weeks, male) were subcutaneously inoculated with 1×10^6 CT26 cells on the right flank. When the tumor volume reached100-150 mm^3, the mice were received different treatments, including saline, aPD-1, tTF-RGD, P-aPD-1, tTF+P-aPD-1 and tTF-RGD+P-aPD-1. For the local treating strategy, tTF or tTF-RGD (0.4 mg/kg) was firstly given by p.t. injection. Half an hour later, P-aPD-1 was administered via i.v. injection at the dose of 1 mg/kg. The treatment was conducted every other day for 3 times in total. For the systemic treating strategy, tTF or tTF-RGD (1.25 mg/kg) was first given by i.v. injection. One hour later, P-aPD-1 was administered via i.v. injection at the dose of 0.3 mg/kg. The treatment was conducted every other day for 3 times in total. The antibodies used in other treatment groups are also given at an equivalent dose. The tumor growth (calculated as: length×width^2×0.5) and body weight were monitored every other day. Mice were euthanized once the tumor volume exceeded 2 cm^3.

[11] = system: CT26 subcutaneous tumor; assay: Anti-tumor efficacy, subcutaneous CT26 model, systemic treating strategy; type: in vivo, Balb/C mice; conditions: tTF or tTF-RGD i.v. 1.25 mg/kg, aPD-1 0.3 mg/kg i.v., 3 doses
Protocol: as §3

[12] = system: TM00096 human breast tumor PDX; assay: Coagulation in PDX tumors, H&E staining; type: in vivo, mice; conditions: i.v. injection with PM-NP, 24 h
From the text: Establishment of the PDX model: To establish the PDX model, TM00096 tumor samples were first propagated on Rag2-II2rg double knockout immunodeficient mice (R2G2® mice, 6-8 weeks, female) and then passaged to nude mice (6-8 weeks, female). Briefly, tumor tissues from R2G2® mice with TM00096 tumors were cut into small pieces, dispersed in the 1:1 mixture of DMEM medium and Matrigel® supplemented with FBS and antibiotics. The tiny tumor tissues were mixed well and placed on ice packs before being injected into the right flank of the nude mice using an 18-gauge needle (100 μL/mouse).
Next, it was determined if tTF-RGD can recruit PM-NP to tumor sites. To validate the translational potential of our treatment strategy, a clinically relevant PDX mouse model was established (FIG. 7C). TM00096 human breast tumor tissues were implanted on the flank of the immunodeficient mice. To affirm that systemic injection of tTF-RGD can initiate the tumor-selective coagulation on the PDX model, tTF+PM-NP or tTF-RGD+PM-NP were administered to the mice via i.v. injection as described above in the CT26-bearing mice model. Twenty-four hours later, the PDX tumors were collected and subjected to H&E staining. […] In order to visualize the tumor-selective accumulation of PM-NP, DiR dyes were encapsulated into NPs, which were further coated with platelet membranes. […]

[13] = system: PDX breast tumors; assay: Recruitment of DiR-loaded PM-NP to PDX tumor (IVIS); type: in vivo, mice; conditions: ex vivo, 24 h, i.v. 1.25 mg/kg
Protocol: Recruitment of PM-NP by tTF-RGD-triggered coagulation: The recruitment of PM-NP to tumor sites by tTF-RGD-initiated coagulation was studied using IVIS. NPs were loaded with DiR and coated with platelet membranes. The PM-NP was washed three times with PBS to remove unreacted dyes. tTF or tTF-RGD was given at the dose of 1.25 mg/kg via i.v. injection to mice bearing PDX breast tumors. One hour later, 2 mg of NPs and PM-NPs were administered via i.v. injection. […] At 24 h, the mice were euthanized, and tumors were collected and visualized ex vivo.

truncated tissue factor-Arg-Gly-Asp (RGD) fusion protein (tTF-RGD) (from UniProt P13726 33-250)
mean fluorescence intensity (MFI) of tumor tissues ex vivo, 24 h after i.v. injection of Cy5.5-labeled protein, against the tTF group [1]: 1.62 fold

B1: tTF-RGD: fused protein of truncated tissue factor (extracellular domain of TF) and RGD motif; SEQ ID NO: 9 (protein)
chain: SGTTNTVAAYNLTWKSTNFKTILEWEPKPVNQVYTVQISTKSGDWKSKCFYTTDTECDLTDEIVKDVKQTYLARVFSYPAGNVESTGSAGEPLYENSPEFTPYLETNLGQPTIQSFEQVGTKVNVTVEDERTLVRRNNTFLSLRDVFGKDLIYTLYYWKSSSSGKKTAKTNTNEFLIDVDKGENYCFSVQAVIPSRTVNRKSTDSPVECMGQEKGEFRRGD
FX activation activity [2]: dose-dependent FX activation activity
hemorrhage and thrombus formation in tumors ([3]; 1.25 mg/kg, data not shown): significant hemorrhage and thrombus formation
coagulation in tumors ([3]; 24 h post-injection): severe coagulation
coagulation / hemorrhage in tumors [4]: effectively triggered obvious coagulation without severe hemorrhage
coagulation in tumor tissues (H&E) ([5]; 24 h after three doses of i.v. injection, 1.25 mg/kg): initiated apparent coagulation
hemorrhage or thrombus in other major organs (H&E) ([5]; after 3 doses of i.v. injection): no obvious hemorrhage or thrombus in other major organs
hemorrhage / thrombosis ([5]; i.v. 1.25 mg/kg every other day for three times, data not shown): did not induce severe hemorrhage but could trigger thrombosis
mean fluorescence intensity (MFI) of tumor tissues relative to tTF group [6]: 1.62 fold
tumor targeting ability, fluorescence signals at tumor site [6]: much stronger tumor targeting ability than tTF
accumulation of Cy5.5-fibrinogen in tumors ([7]; 24 h post i.v. injections, protein 1.25 mg/kg): strong signals
MFI of Cy5.5-fibrinogen in tumors, increase compared with tTF group ([7]; ex vivo, 24 h, i.v. 1.25 mg/kg): 2.37 fold
fluorescence signals of P-aPD-1 in tumor tissues, increase versus tTF group ([8]; ex vivo, 24 h, protein p.t. 0.4 mg/kg): 1.87 fold
Rhodamine B-labeled P-aPD-1 fluorescence in resected tumors compared to BSA and tTF ([8]; p.t. injection): More fluorescence signals
accumulation of Cy5.5-labeled P-aPD-1 at tumor site (imaging) ([8]; protein p.t. 0.4 mg/kg then i.v. P-aPD-1, from 4 h post injection): strong tendency to accumulate at the tumor site
accumulation of P-aPD-1 in tumor tissues, increase versus tTF group ([9]; ex vivo, 24 h, protein i.v. 1.25 mg/kg): 1.89 fold
Rhodamine B-labeled P-aPD-1 fluorescence in resected tumors compared to BSA and tTF ([9]; i.v. injection): More fluorescence signals
distribution of Cy5.5-labeled P-aPD-1 at tumor sites (imaging) compared to tTF and BSA ([9]; protein i.v. 1.25 mg/kg then i.v. P-aPD-1, time-course): increased distribution of P-aPD-1 at the tumor sites
median survival time [10]: 30 days
tumor growth inhibition [10]: negligible tumor-inhibiting activity
median survival time [11]: 27 days
coagulation in PDX tumor tissues (H&E) [12]: could induce coagulation in PDX tumor tissues without severe hemorrhage
MFI of tumors, accumulation of PM-NP, increase versus tTF treatment [13]: 5.05 fold
